Here are results for 13 sequences from the DeepSol protein solubility set.

The series in a line: soluble on expression in E. coli; label from the status in PepcDB or PDB records.
With “MNRRRKLLIPLLFCGAMLTACDDKSAENAAAMTPEVGVVTLSPGSVNVLSELPGRTVPYEVAEIRPQVGGIIIKRNFIEGDKVNQGDSLYQIDPAPLQAELNSAKGSLAKALSTASNARITFNRQASLLKTNYVSRQDYDTARTQLNEAEANVTVAKAAVEQATINLQYANVTSPITGVSGKSSVTVGALVTANQADSLVTVQRLDPIYVDLTQSVQDFLRMKEEVASGQIKQVQGSTPVQLNLENGKRYSQTGTLKFSDPTVDETTGSVTLRAIFPNPNGDLLPGMYVTALVDEGSRQNVLLVPQEGVTHNAQGKATALILDKDDVVQLREIEASKAIGDQWVVTSGLQAGDRVIVSGLQRIRPGIKARAISSSQENASTESKQ”, the “soluble on expression in E. coli” value is recorded as “not soluble”.
In the case of “MNRSDKWQQRVAQVAYRFNQQYQNQSLELPAEVQEMPIYREWISGILAGKIASPFWEMAQPQKNQHCLDIGCGVSFLIYPWRDWQAFFYGQDVSNVARDTLNSRGSQLNSKLFKGVELGAAHQLKYTLSYFDLAIATGFSCYFPLEYWTSVLQAVKRVLKPDGHFVFDILNAAHPQAEDWAVLETYLGAEVFLEPVTEWEKIINAAGAKVVGRQPGEFFDLYKLRLEHHHHHH”, the “soluble on expression in E. coli” value was “not soluble”.
In the case of “MNSFYSQEELKKIGFLSVGKNVLISKKASIYNPGVISVGNNVRIDDFCILSGKVTIGSYSHIAAYTALYGGEVGIEMYDFANISSRTIVYAAIDDFSGNALMGPTIPNQYKNVKTGKVILKKHVIIGAHSIIFPNVVIGEGVAVGAMSMVKESLDDWYIYVGVPVRKIKARKRKIVELENEFLKSMNSLEHHHHHH” it was “not soluble”; in that of “MNSLFLLLFICFNSGCGRKYYEEDIDRAFRSAEAEILPFRPHNVFSSDDSLMLNYSIAALAAIKMAQKTRDPRQKLPHHLCPLKKYNCLYGKYRHSDGRCTNIFFALSGSAYSSFSRRIPANYDDDISTPRLHGYRNGLLPPPAVVEKQIARTPAIYAISLTNTFLEFSEFLYNDLVKFVRLQDGLGCCGTGKSGECLNFGENFLDCYIRSAPSPRAHCSLGRREQMNLATAFLDAGPIYQDLRDTSKGKISSSFTLESTTKSSIHSLLIDEHNWVVDQIQKKFPDMGLELIFEEARKFVIAELQHITFEQFLPILLGDETMKKYDLRASHCDGGSCHEVEANTLNEFGSAVGLFYKFMTSSDKIYNPSLYSTSDFSTSPTSSSSKSPNVAEIISKGRDHGIATYSQWRKECGGGELKTYEDLIDLIDSNILKSLRDLYPDVLDVDLILLGIAENPVYGSLLGPTFGCIMALQFQKTKFGDTYWYTNKLTEDQLEEVKKTSISAMMCRHQKTSIIQKDVFKAADNFQNIPIFCNSSVFAKPDFSKWVETPEKHKNEQFDDILGECILEVFEARNRQRPATLQEGLHNSVALKSYGSMMLAKDEAVNEANVSLILLEATKKLVKLKHIELDSIQSVNIGEDFGKKSDSQCNPKNLPCDSTNPYRSYTGWCNNLETPSLANTFRELRRLLPPAYEDGIDLPRSKTITGSRLPSPRVISNMVHHAKKIEHVKYSHFVMEFGQFIDHDITHSPVDQNSDGTALNCSRCDSGRFVSPSCFPIPVPVNDVHFEPFSCLSFVRSLPAQKTLGYRNQMNQVSAYLDGSVMYGSTKCEGDRLRTFQDGKMKTTQTSRAPRHYGITLSQSDESEQDGCVSAPDAPCFIAGDDRNSQQTLLIAVHSVFHREHERITTTLKEINPNWDDEKIYQETRKLISAEFAHIVYNEYLPIIIGQKLIDDYDLRPRQDGYYDGYENCDASILQPFATAAFRFGHSTVTRFTPMQETVHDPATCVVDLASDFLNMSKIYDNEAVEQILGGMHGKHQMMTDRFVDDAIRNFLFSDRGRRGTGLDLISINIQRGRDHGIPPYNHYRSFCGLSRLTSFYSIFSDINQDGLTAIGKVYESPDDIDLFTGIVSEKTIPGGIVGPTAACIIAEQFRRLKKCDRFYYENGEDHSKFSASQLKEVRKTSMSALICANTKVPKISKDVFSVPDPFRYS”, “soluble”; in that of “MNSNMVFARVNEADVTEAILDGFYSSLKKHLRSDVIVVGAGPAGLTAAWRLAEAGARVLIVEQNNYLGGGLWLGGYFMNPVTIRAPAQRILDELEVPYEAVKPGLYRTKGPLLAAKLAARALEAGAEVLNLTMLDDVIVENSRVAGVVVNWSPVQGLPRQITCVDPVGLRAEYVVDATGHDAVVTRKLAERGMVEASKLGPMWVERSEDLVVEKTGEVYPGLVVAGIAVAEVYGLPRMGPTFGAMLLSGEKAAALIGEKLGLKVKVAAAPASQA”, “soluble”.
The same measure for “MNSRQQSILQMVVDKGQMSVAELAKITGVSEVTIRQDLNTLEKQSYLRRAHGFAVSLESDDVETRMMTNYTLKRRLAEFAASLVSPGESVFIENGSSNALLARTLAEQKDVTIITVSSYIAHLLKETPCEVILLGGIYQKKSESMVGPLTRQFIHQVHFSKAFIGIDGWQADTGFTGRDMMRSDVVNAVLEKGSEAIVLTDSSKFGCVHPYPLGPLSRFHRVITDSKISASDQMQLEHAGLLVNVIGSSV”: “not soluble”; for “MNSSESSSNSEVSSSKTRTVKHAMGTSDNIPANPKRIVVLTNEGTEALLALGIKPVGAVKSWKGDPWYDYLKDDMKGVKNVGLETEPNVEAIAELKPDLIIGNKVRQEKIYDQLNAIAPTVFAESLAGNWKDNLTLYANAVNKADKGKEVIADFDKRVSDLKNKLGDQTNKTVSVVRFLSGESRIYYTDSFPGIILDQLGFKRPEKQVELFKKQKDQFTFSTDSKESIPDMDADVLFYFTYKADNAKENEKWANQWTSSSLWKNLKAVKSGNAHEVDDVVWTTAGGIKAANYLLDDIETYFLKTKLEHHHHHH”: “not soluble”; for “MNTCPLCHSTDLVAYHHDKRRPYQQCQRCALVSVPAEFYLSRDEEKAEYDKHENHPQDLGYQQFLDRTLAPLLARFESTALGLDFGCGEGKALSLMAQARGYRVENYDLYYANHPELLTRQYDFITLTEVIEHVSDADALLTQLKGMLKPKGILAVMTKRVLNPTAFSTWHYKNDPTHINFYAEATFQWLAEHYGWRLEVIDKDVVFLYQANLEHHHHHH”: “soluble”.
Turning to “MNTDAIESMVRDVLSRMNSLQGEAPAAAPAAGGASRSARVSDYPLANKHPEWVKTATNKTLDDFTLENVLSNKVTAQDMRITPETLRLQASIAKDAGRDRLAMNFERAAELTAVPDDRILEIYNALRPYRSTKEELLAIADDLESRYQAKICAAFVREAATLYVERKKLKGDD”, the “soluble on expression in E. coli” value is “soluble”.
Consider “MNTFKETLFSLKKSNYLLNESAQILNDCVVNNNEIDERLRNSIKFALGIINLASYCLKNEQEQLDHELNHGNEAPWEFSFNEAEQLIECTVKNNFGNEKLVDLIFHIGDAMETYRTTNIKFRVPKSYYDAKQQIRKVIKN”, for which the “soluble on expression in E. coli” value was “soluble”.
In the case of “MNTLGLYQSDWSKAPPHAHAYHVKTTREQGHYHLIEGFTQPANGSNTDQHTHYYTGITSFENGHFHRYYGISGPAIPLADGTHYHEIEETTYLAYNEPIEIQYGGVVYDPGDDRRKTHRHTLKGKTREIVGNEPLGR” it was “soluble”; in that of “MNTMKNVTKRSFQTIAIVGKPRHDNALETHLAVYNWLKDRHYSVLVEEKIAEQLQLPNGKRIEEIGQIADLVIVIGGDGNMLGMARSLAKYQVPLIGINRGNLGFLTDIAPQSAFEQLYSCLEKGEFIIEQRFLLEAQIEQNGKIISANNALNEVAIHPTQVARIIEFEVYIDSKFAFSQRSDGLIIATPTGSTAYSLSAGGPILTPNMNAIALVPMHPHALSSRPLVIDGDSHISLRFAQYNQPNLEISCDGQDDLPFTPEDRIIVRKSPDILHLLHLKDYNYFTVLGSKLGWSSKLF”, “soluble”; in that of “MNTSTTKPFAWPAHVFKEYDIRGRAGEELDESFAYWLGRAFADMMQKEGEKRAVVGHDNRLSSPGLHRALKDGLLDGGCDVVDIGLSTTPMFYYSLYYTNIPCGMIITASHNPGDENGFKIAMGKTTIYGERIQALRRAMERLSQEQPRPETARGREETLDLAPAYIKMLKEKIQLGPRKLKVVVDCGNGTPSIIAPQVLKEWGCDVVPLYCESDPTFPNHHPDPVVPENLTALIEMVRKEQADLGIAFDGDGDRIGVVDETGAIRWGDQLMVLFWREILKRYPGADAPVEVKCSQALVEEIERLGGKPFFHRTGHSHVKATLRRRPEIPFAGEMSGHLFFNDEFYGYDDALYAAGRLLRLLSHDERPLSEWFADVPRYAATPETRVACPEEKKPAAIAAVKNQFAGRYPVVDVDGARIQFPEGWGLVRPSNTQPILVLRAEAKTEEALAEIKRQLADCLHALELCIDW”, “soluble”.
